# Source: patent publication US20200317768A1 (published 2020)
# T1: cynomolgus monkey FcγRIIIaS extracellular domain with C-terminal His-tag (cynomolgus monkey, UniProt Q8SPW2 21-206 at identity 1.00))
# T1 construct: Expressed in FreeStyle 293 cells and purified; also called cyno FcγRIIIaS; cynoFcγRIIIaS; not shown: C-terminal His-tag
# T1 chain: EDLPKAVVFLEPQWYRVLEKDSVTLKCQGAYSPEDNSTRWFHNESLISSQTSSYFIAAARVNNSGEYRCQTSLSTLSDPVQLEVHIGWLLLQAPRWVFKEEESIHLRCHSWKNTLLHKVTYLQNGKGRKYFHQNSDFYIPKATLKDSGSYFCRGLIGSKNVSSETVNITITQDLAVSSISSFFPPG
# T2: human FcγRIIb extracellular domain with C-terminal His-tag (human, UniProt P31994 43-217)
# T2 construct: Expressed in FreeStyle 293 cells and purified; also called humanFcgRIIb; not shown: C-terminal His-tag
# T2 sequence: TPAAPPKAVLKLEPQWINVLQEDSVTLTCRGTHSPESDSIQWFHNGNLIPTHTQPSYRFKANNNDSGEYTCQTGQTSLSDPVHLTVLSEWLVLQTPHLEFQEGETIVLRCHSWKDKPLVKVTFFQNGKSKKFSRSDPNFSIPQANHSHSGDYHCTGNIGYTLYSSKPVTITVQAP
# T3: cynomolgus monkey FcγRIIa3 extracellular domain with C-terminal His-tag (cynomolgus monkey)
# T3 construct: Expressed in FreeStyle 293 cells and purified; also called cyno FcγRIIa3; cynoFcgRIIa3; not shown: C-terminal His-tag
# T3 chain: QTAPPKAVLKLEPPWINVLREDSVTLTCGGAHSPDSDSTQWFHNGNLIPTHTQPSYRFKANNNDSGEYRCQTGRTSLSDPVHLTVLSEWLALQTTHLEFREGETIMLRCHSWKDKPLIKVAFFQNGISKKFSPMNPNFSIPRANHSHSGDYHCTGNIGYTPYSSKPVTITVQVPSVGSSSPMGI
# T4: human FcγRIIaR extracellular domain with C-terminal His-tag (human, UniProt P12318 34-217)
# T4 construct: Expressed in FreeStyle 293 cells and purified; also called human FcγRIIa (type R); FcgRIIaR; not shown: C-terminal His-tag
# T4 chain: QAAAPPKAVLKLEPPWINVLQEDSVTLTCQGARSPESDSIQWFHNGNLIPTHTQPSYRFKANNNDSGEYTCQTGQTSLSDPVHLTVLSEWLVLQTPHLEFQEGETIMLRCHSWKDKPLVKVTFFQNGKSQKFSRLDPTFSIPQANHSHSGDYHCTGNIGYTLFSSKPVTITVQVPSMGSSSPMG
# T5: human FcγRIIaH extracellular domain with C-terminal His-tag (human, UniProt P12318 34-217)
# T5 construct: Expressed in FreeStyle 293 cells and purified; also called human FcγRIIa (type H); FcgRIIaH; not shown: C-terminal His-tag
# T5 sequence: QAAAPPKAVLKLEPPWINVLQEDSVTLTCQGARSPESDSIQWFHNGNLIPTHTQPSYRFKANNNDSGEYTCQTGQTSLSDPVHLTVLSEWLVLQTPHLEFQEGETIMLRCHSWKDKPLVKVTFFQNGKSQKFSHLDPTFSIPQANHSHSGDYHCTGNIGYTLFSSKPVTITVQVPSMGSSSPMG
# T6: cynomolgus monkey FcγRIIa1 extracellular domain with C-terminal His-tag (cynomolgus monkey)
# T6 construct: Expressed in FreeStyle 293 cells and purified; also called cyno FcγRIIa1; cynoFcgRIIa1; not shown: C-terminal His-tag
# T6 chain: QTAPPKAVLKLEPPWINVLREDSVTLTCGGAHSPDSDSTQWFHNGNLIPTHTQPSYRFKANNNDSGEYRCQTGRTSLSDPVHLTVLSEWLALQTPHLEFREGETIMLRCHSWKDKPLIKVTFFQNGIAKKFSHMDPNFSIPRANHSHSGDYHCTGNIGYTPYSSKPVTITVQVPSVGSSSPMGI
# T7: cynomolgus monkey FcγRIIa2 extracellular domain with C-terminal His-tag (cynomolgus monkey)
# T7 construct: Expressed in FreeStyle 293 cells and purified; also called cyno FcγRIIa2; cynoFcgRIIa2; not shown: C-terminal His-tag
# T7 chain: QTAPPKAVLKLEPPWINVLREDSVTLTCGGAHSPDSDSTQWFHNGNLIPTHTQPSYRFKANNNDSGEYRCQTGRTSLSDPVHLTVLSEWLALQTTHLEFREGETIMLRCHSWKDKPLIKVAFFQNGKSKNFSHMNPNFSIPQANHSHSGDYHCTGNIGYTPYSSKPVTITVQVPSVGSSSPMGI
# T8: cynomolgus monkey FcγRIIb extracellular domain with C-terminal His-tag (cynomolgus monkey)
# T8 construct: Expressed in FreeStyle 293 cells and purified; also called cyno FcγRIIb; cynoFcγRIIb; not shown: C-terminal His-tag
# T8 chain: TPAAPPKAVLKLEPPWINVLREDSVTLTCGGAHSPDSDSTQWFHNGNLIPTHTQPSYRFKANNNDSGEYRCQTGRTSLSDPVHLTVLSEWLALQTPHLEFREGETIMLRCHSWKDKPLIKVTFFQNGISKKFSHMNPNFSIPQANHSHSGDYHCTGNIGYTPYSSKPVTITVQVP
# Assays:
# Experiment in all cases: SPR (Biacore); KD of SG1 divided by KD of the variant for this FcgR;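 also: relative to parent M103205H795-SG1 carrying the SG1 human heavy chain constant region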
# [1] = target: T9, human FcγRIIIaV extracellular domain with C-terminal His-tag (human, UniProt P08637 17-208)
# T9 construct: Expressed in FreeStyle 293 cells and purified; also called FcgRIIIaV; not shown: C-terminal His-tag
# T9 sequence (P08637 17-208 F176V): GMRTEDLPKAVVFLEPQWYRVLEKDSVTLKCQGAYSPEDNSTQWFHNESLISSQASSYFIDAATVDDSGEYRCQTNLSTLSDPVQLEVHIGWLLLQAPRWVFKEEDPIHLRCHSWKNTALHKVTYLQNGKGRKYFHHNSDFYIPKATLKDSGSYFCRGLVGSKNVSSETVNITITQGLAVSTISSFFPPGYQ
# Protocol: (§1) Regarding such interactions, KD values were calculated using the following 1:1 binding model described in BIACORE® T100 Software Handbook BR1006-48 Edition AE.
# (§2) The behavior of interacting molecules according to the 1:1 binding model on BIACORE® can be described by Equation 1: Req=C·R max/(KD+C)+RI, wherein, Req is a plot of steady-state binding levels to analyte concentration. C is concentration, RI is bulk refractive index contribution in the sample, and Rmax is analyte binding capacity of the surface. When this equation is rearranged, KD can be expressed as Equation 2: KD=C·Rmax/(Req−RI)−C. KD can be calculated by substituting the values of Rmax, RI, and C into Equation 1 or Equation 2. From the current measurement conditions, RI=0, C=2 μmol/L can be used.
# (§3) The variants were expressed using M103202L889-SK1 as the light chain and their affinity was analyzed.
# [2] = target: T1, cynomolgus monkey FcγRIIIaS …
# Protocol: as §1, §2, §3
# [3] = target: T2, human FcγRIIb extracellular domain with …
# Protocol: as §1, §2, §3
# [4] = target: T3, cynomolgus monkey FcγRIIa3 …
# Protocol: as §1, §2, §3
# [5] = target: T4, human FcγRIIaR extracellular domain …
# Protocol: as §1, §2, §3
# [6] = target: T5, human FcγRIIaH extracellular domain …
# Protocol: as §1, §2, §3
# [7] = target: T6, cynomolgus monkey FcγRIIa1 …
# Protocol: as §1, §2, §3
# [8] = target: T7, cynomolgus monkey FcγRIIa2 …
# Protocol: as §1, §2, §3
# [9] = target: T8, cynomolgus monkey FcγRIIb extracellular …
# Protocol: as §1, §2, §3
Binder,KD fold (SG1 = 1) [1] [fold],KD fold (SG1 = 1) [2] [fold],KD fold (SG1 = 1) [3] [fold],KD fold (SG1 = 1) [4] [fold],KD fold (SG1 = 1) [5] [fold],KD fold (SG1 = 1) [6] [fold],KD fold (SG1 = 1) [7] [fold],KD fold (SG1 = 1) [8] [fold],KD fold (SG1 = 1) [9] [fold]
"M103205H795-MY204 / M103202L889-SK1 (antibody, human IgG1, kappa, Fc variant of M103205H795-SG1, expressed with M103202L889-SK1 as light chain) heavy: QVTLKESGPVLVKPTETLTLTCTVSGIDLSHDDISWVRQAPGKGLEWVGIISYAGSTYYASWAKGRLTISKDTSKNQVVLTMTNMDPVDTATYYCARGVPAYSHGGDLWGQGTLVTVSSASTKGPSVFPLAPSSKSTSGGTAALGCLVKDYFPEPVTVSWNSGALTSGVHTFPAVLQSSGLYSLSSVVTVPSSSLGTQTYICNVNHKPSNTKVDKKVEPKSCDKTHTCPPCPAPELLNGPVVFLFPPKPKDTLMISRTPEVTCVVVDVSEEDPEVKFNWYVDGVEVHNAKTKPREELYNSTYRVVSVLTVLHQDWLNGKEYKCKVSNKALPKPIEKTISKAKGQPREPQVYTLPPSREEMTKNQVSLTCLVKGFYPSDIAVEWESNGQPENNYKTTPPVLDSDGSFFLYSKLTVDKSRWQQGNVFSCSVMHEALHNHYTQKSLSLSP light: DIVMTQSPATLSLSPGERATLSCTSSQSVYHANWLSWFQQKPGQPPKLLIYWASTLAYGVPSRFSGSGSGTDFTLTISSLQPEDAATYYCAGGYGGGRYAFGQGTKVEIKRTVAAPSVFIFPPSDEQLKSGTASVVCLLNNFYPREAKVQWKVDNALQSGNSQESVTEQDSKDSTYSLSSTLTLSKADYEKHKVYACEVTHQGLSSPVTKSFNRGEC",0.07,0.1,3.5,8.8,0.4,0.5,2.5,3.6,3.2
"M103205H795-MY205 / M103202L889-SK1 (antibody, human IgG1, kappa, Fc variant of M103205H795-SG1, expressed with M103202L889-SK1 as light chain; also called MS1032LO06-MY205) heavy: QVTLKESGPVLVKPTETLTLTCTVSGIDLSHDDISWVRQAPGKGLEWVGIISYAGSTYYASWAKGRLTISKDTSKNQVVLTMTNMDPVDTATYYCARGVPAYSHGGDLWGQGTLVTVSSASTKGPSVFPLAPSSKSTSGGTAALGCLVKDYFPEPVTVSWNSGALTSGVHTFPAVLQSSGLYSLSSVVTVPSSSLGTQTYICNVNHKPSNTKVDKKVEPKSCDKTHTCPPCPAPELLNGPSVFLFPPKPKDTLMISRTPEVTCVVVDVSDEDPEVKFNWYVDGVEVHNAKTKPREELYNSTYRVVSVLTVLHQDWLNGKEYKCKVSNKALPKPIEKTISKAKGQPREPQVYTLPPSREEMTKNQVSLTCLVKGFYPSDIAVEWESNGQPENNYKTTPPVLDSDGSFFLYSKLTVDKSRWQQGNVFSCSVMHEALHNHYTQKSLSLSP light: DIVMTQSPATLSLSPGERATLSCTSSQSVYHANWLSWFQQKPGQPPKLLIYWASTLAYGVPSRFSGSGSGTDFTLTISSLQPEDAATYYCAGGYGGGRYAFGQGTKVEIKRTVAAPSVFIFPPSDEQLKSGTASVVCLLNNFYPREAKVQWKVDNALQSGNSQESVTEQDSKDSTYSLSSTLTLSKADYEKHKVYACEVTHQGLSSPVTKSFNRGEC",0.06,0.06,8,5.7,0.8,1.5,3.5,4.6,7.2

# The remaining lines, values ahead:
KD fold (SG1 = 1) [1] [fold],KD fold (SG1 = 1) [2] [fold],KD fold (SG1 = 1) [3] [fold],KD fold (SG1 = 1) [4] [fold],KD fold (SG1 = 1) [5] [fold],KD fold (SG1 = 1) [6] [fold],KD fold (SG1 = 1) [7] [fold],KD fold (SG1 = 1) [8] [fold],KD fold (SG1 = 1) [9] [fold],Binder
0.1,0.08,2.9,2.5,0.4,0.5,2.1,8.6,2.2,"M103205H795-MY207 / M103202L889-SK1 (antibody, human IgG1, kappa, Fc variant of M103205H795-SG1, expressed with M103202L889-SK1 as light chain) heavy: not shown light: DIVMTQSPATLSLSPGERATLSCTSSQSVYHANWLSWFQQKPGQPPKLLIYWASTLAYGVPSRFSGSGSGTDFTLTISSLQPEDAATYYCAGGYGGGRYAFGQGTKVEIKRTVAAPSVFIFPPSDEQLKSGTASVVCLLNNFYPREAKVQWKVDNALQSGNSQESVTEQDSKDSTYSLSSTLTLSKADYEKHKVYACEVTHQGLSSPVTKSFNRGEC"
0.1,0.11,5.1,5.7,0.8,0.7,4,6.5,4,"M103205H795-MY206 / M103202L889-SK1 (antibody, human IgG1, kappa, Fc variant of M103205H795-SG1, expressed with M103202L889-SK1 as light chain) heavy: QVTLKESGPVLVKPTETLTLTCTVSGIDLSHDDISWVRQAPGKGLEWVGIISYAGSTYYASWAKGRLTISKDTSKNQVVLTMTNMDPVDTATYYCARGVPAYSHGGDLWGQGTLVTVSSASTKGPSVFPLAPSSKSTSGGTAALGCLVKDYFPEPVTVSWNSGALTSGVHTFPAVLQSSGLYSLSSVVTVPSSSLGTQTYICNVNHKPSNTKVDKKVEPKSCDKTHTCPPCPAPELLNGPVVFLFPPKPKDTLMISRTPEVTCVVVDVSDEDPEVKFNWYVDGVEVHNAKTKPREELYNSTYRVVSVLTVLHQDWLNGKEYKCKVSNKALPKPIEKTISKAKGQPREPQVYTLPPSREEMTKNQVSLTCLVKGFYPSDIAVEWESNGQPENNYKTTPPVLDSDGSFFLYSKLTVDKSRWQQGNVFSCSVMHEALHNHYTQKSLSLSP light: DIVMTQSPATLSLSPGERATLSCTSSQSVYHANWLSWFQQKPGQPPKLLIYWASTLAYGVPSRFSGSGSGTDFTLTISSLQPEDAATYYCAGGYGGGRYAFGQGTKVEIKRTVAAPSVFIFPPSDEQLKSGTASVVCLLNNFYPREAKVQWKVDNALQSGNSQESVTEQDSKDSTYSLSSTLTLSKADYEKHKVYACEVTHQGLSSPVTKSFNRGEC"
